Substrate in the series: C=C(C)CCO[P@@](=O)(O)OP(=O)(O)O
The experiment in a line: purified protein. Conditions: IPP 0.5-50 µM.

[1] abbreviates: co-substrate GPP 60 µM, FPP formation.

Residue numbers refer to the chain shown, from its start. Names and notes keep the numbering of the source.

B1: RcG/FPPS1 (Rosa chinensis; F88Y) (protein)
chain: MADLKSKFLNVYSVLKSELLEDPAFEFTDASRQWVERMLDYNVPGGKLNRGLSVIDSYQLLQQGRELTEDEIFQASALGWCIEWLQAYFLVLDDMMDGSHTRRGQPCWFRLPKVGLIAANDGVLLRNHIPRILKKHFRQKPYYVDLVDLFNEVEFQTASGQLIDLITTIDGEKDLSKYSLSIHRRIVQYKTAYYSFYLSVACALLMSGEELDKHIDVKNLLVDMGIYFQVQDDYLDCFGDPETIGKIGTDIEDFKCSWLVVKALELSNEEQKKILHENYGNPDPAKVAKVKALYKELDLQGVFAEYERQSYEKLISSIEAHPSKAVQEVLKSFLGKIYKRKK
B1: under setting [1], the Km (commonly the concentration of substrate that gives half-maximal velocity) was 9.08 ± 0.74 µM.

B2: RcG/FPPS1 (Rosa chinensis; F88Y/V123I) (protein)
chain: B1 chain with V123I
For the protein B2, the Km under setting [1] is on record as 12.78 ± 3.07 µM.

B3: RcG/FPPS1 (Rosa chinensis; V123I) (protein)
chain: B1 chain with Y88F, V123I
Take B3: the Michaelis-Menten constant (Km) under setting [1] is on record as 14.74 ± 1.94 µM.

B4: RcG/FPPS1 (Rosa chinensis) (protein)
chain: B1 chain with Y88F
With B4, the Km (co-substrate DMAPP 60 µM, GPP formation) worked out at 0.44 ± 0.03 µM.

B5: RcFPPS2 (Rosa chinensis) (protein)
chain: MSNLRAKFMEVYSVLKSELINDPAFEFTDVSRQWIERMLDYNVPGGKLNRGLSVVDSFKLLKEGRELTDEEVFQSCALGWCIEWLQAYFLVLDDIMDGSHTRRGQPCWFRQPKIGMIAANDGIILRNHIPRILKNHFRVMPYYVDLLDLFNEVEFQTAHGQMIDLITTHEGEKDLSKYSLEIHRRIVQYKTAYYSFYLPVACALVMAGKNVESHADVKNILIEMGTYFQVQDDYLDCFGDPEVIGKVGTDIQDFKCSWMVVKALELSNEEQKKLLHENYGKDDQECIAKVKELYNVLDLQGVFTEYESSSYDKLTKSIEAHPSKAVQAVLKSFLAKIYKRQK
Regarding B5, the Km under setting [1] was 13.1 ± 3.4 µM.

For the origin of these results see publication PMC10175749.
